From patent US20040224408A1, “THAP proteins as nuclear receptors for chemokines and roles in transcriptional regulation, cell proliferation and cell differentiation” (published 2004)

Columns and labels:
human THAP1 (THanatos …) [1] = target: T1, human THAP1 (THanatos (death)-Associated Protein-1), full length (human, UniProt Q9NVV9 1-213); assay: yeast two-hybrid, pGADT7-THAP1 with pGBKT7-IFNγ
T1 construct: also called hTHAP1; FLJ10477
T1 sequence: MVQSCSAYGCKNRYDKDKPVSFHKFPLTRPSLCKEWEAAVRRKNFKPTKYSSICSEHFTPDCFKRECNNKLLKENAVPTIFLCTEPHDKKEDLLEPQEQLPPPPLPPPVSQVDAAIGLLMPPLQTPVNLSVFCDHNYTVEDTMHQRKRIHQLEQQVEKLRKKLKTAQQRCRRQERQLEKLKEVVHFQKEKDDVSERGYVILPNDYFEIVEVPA
From the text: […]

[2] = target: T2, GST-THAP1 fusion protein (pGEX-2T-THAP1) (human, UniProt Q5RCE4 1-213 (Pongo abelii entry)); assay: GST pull-down, immobilized GST-THAP1, in vitro translated 35S-labelled IFNγ
T2 construct: Expressed in E. coli DH5alpha and immobilized on glutathione sepharose; also called GST-THAP1 wild-type; not shown: Glutathione S-transferase (GST) encoded by the pGEX-2T prokaryotic expression vector (Amersham Pharmacia Biotech); N-ter
T2 sequence: T1 sequence
Method: To confirm the interaction observed in yeast two-hybrid system, we performed in vitro GST pull down assays. THAP1, expressed as a GST-tagged fusion protein and immobilized on glutathione sepharose, was incubated with radiolabeled chemokines that were translated in vitro.
In vitro-translated chemokines were generated with the TNT-coupled reticulocyte lysate system (Promega, Madison, Wis., USA) using as templates pGBKT7-CCL21, -CCL19, -CXCL9, -CXCL10 and CXCL11 chemokine vectors (see Example 32) or pCMV-SPORT6-CCL5 plasmid (Image clone No. 4185200). In vitro-translated IFNγ cytokine was generated similarly using as template plasmid pGBKT7-IFNγ. A 25 μvolume of ³⁵S-labelled chemokine was incubated with immobilized GST-THAP1 or GST proteins overnight at 4° C., in the following binding buffer: 10 mM NaPO4 pH 8.0, 140 mM NaCl, 3 mM MgCl₂, 1 mM dithiothreitol (DTT), 0.05% NP40, and 0.2 mM phenylmethyl sulphonyl fluoride (PMSF), 1 mM Na vanadate, 50 mM β-glycerophosphate, 25 μg/ml chymotrypsine, 5 μg/ml aprotinin, and 10 μg/ml leupeptin. Beads were then washed 5 times in 1 ml binding buffer. Bound proteins were eluted with 2×Laemmli SDS-PAGE sample buffer, fractionated by 10% SDS-PAGE and visualized by fluorography using Amplify (Amersham Pharmacia Biotech). GST/THAP1 specifically bound to chemokines CCL21, CCL19, CCL5, CXCL9, CXCL10 and CXCL11 but not cytokine IFNγ (FIGS. 19 and 20). […]

[3] = target: T3, Glutathione S-transferase (GST) control protein (pGEX-2T) (UniProt P08515 1-218 = GST); assay: GST pull-down, immobilized GST control, in vitro translated 35S-labelled IFNγ
T3 construct: Negative control immobilized on glutathione sepharose; also called GST beads; immobilized GST alone
Method: In vitro-translated chemokines were generated with the TNT-coupled reticulocyte lysate system (Promega, Madison, Wis., USA) using as templates pGBKT7-CCL21, -CCL19, -CXCL9, -CXCL10 and CXCL11 chemokine vectors (see Example 32) or pCMV-SPORT6-CCL5 plasmid (Image clone No. 4185200). In vitro-translated IFNγ cytokine was generated similarly using as template plasmid pGBKT7-IFNγ. A 25 μvolume of ³⁵S-labelled chemokine was incubated with immobilized GST-THAP1 or GST proteins overnight at 4° C., in the following binding buffer: 10 mM NaPO4 pH 8.0, 140 mM NaCl, 3 mM MgCl₂, 1 mM dithiothreitol (DTT), 0.05% NP40, and 0.2 mM phenylmethyl sulphonyl fluoride (PMSF), 1 mM Na vanadate, 50 mM β-glycerophosphate, 25 μg/ml chymotrypsine, 5 μg/ml aprotinin, and 10 μg/ml leupeptin. Beads were then washed 5 times in 1 ml binding buffer. Bound proteins were eluted with 2×Laemmli SDS-PAGE sample buffer, fractionated by 10% SDS-PAGE and visualized by fluorography using Amplify (Amersham Pharmacia Biotech). GST/THAP1 specifically bound to chemokines CCL21, CCL19, CCL5, CXCL9, CXCL10 and CXCL11 but not cytokine IFNγ (FIGS. 19 and 20). […] CXCL10 also bound to immobilized GST-THAP1 (indicated by ++ in the column labelled “In vitro binding to GST-THAP1”).

[4] = target: T4, human chemokine SLC/CCL21, mature form (amino acids 24-134) (human, UniProt O00585 24-134); assay: yeast two-hybrid, pGADT7-THAP1 mutant with pGBKT7-SLC/CCL21
T4 construct: also called SLC/6Ckine; SLC/CCL21 wild type
T4 sequence: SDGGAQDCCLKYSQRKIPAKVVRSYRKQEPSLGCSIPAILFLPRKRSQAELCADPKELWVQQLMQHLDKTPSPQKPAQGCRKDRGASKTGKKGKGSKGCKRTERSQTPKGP
Method: Two-hybrid interaction between THAP1 mutants and chemokine SLC/CCL21 was tested by cotransformation of AH109 with pGADT7-THAP1-C1, -C2, -C3, -N1, -N2 or -N3 and pGBKT7-SLC/CCL21 and selection of transformants by His and Ade double auxotrophy according to manufacturer's instructions ([…] two-hybrid system 3, Clontech). pGBKT7-SLC/CCL21 vector was generated by subcloning the BamHI SLC/CCL21 fragment from pGBT9-SLC (see example 1) into the unique BamHI cloning site of vector pGBKT7 (Clontech).

human THAP1 (THanatos …) [5] = target: T1, human THAP1 (THanatos …); assay: yeast two-hybrid, pGADT7-THAP1 mutant with pGBKT7-THAP1 wild-type
Method: Two-hybrid interaction between THAP1 mutants and THAP1 wild type was tested by cotransformation of AH109 with pGADT7-THAP1-C1, -C2, -C3, -N1, -N2 or -N3 and pGBKT7-THAP1 wild-type and selection of transformants by His and Ade double auxotrophy according to manufacturer's instructions ([…] two-hybrid system 3, Clontech).

[6] = target: T2, GST-THAP1 fusion protein (pGEX-2T-THAP1); assay: GST pull-down, immobilized GST-THAP1, in vitro translated 35S-labelled mutant
Method: To confirm the results obtained in yeast, THAP1 mutants were also tested in in vitro GST pull down assays. Wild type THAP1 expressed as a GST-tagged fusion protein and immobilized on glutathione sepharose (as described in example 16), was incubated with radiolabeled in vitro translated THAP1 mutants. In vitro-translated THAP1 mutants were generated with the TNT-coupled reticulocyte lysate system (Promega, Madison, Wis., USA) using pGADT7-THAP1-C1, -C2, -C3, -N1, -N2 or -N3 vector as template. 25 μl of each ³⁵S-labelled THAP1 mutant was incubated with immobilized GST or GST-THAP1 wild-type protein overnight at 4° C., in the following binding buffer: 10 mM NaPO4 pH 8.0, 140 mM NaCl, 3 mM MgCl2, 1 mM dithiothreitol (DTT), 0.05% NP40, and 0.2 mM phenylmethyl sulphonyl fluoride (PMSF), 1 mM Na Vanadate, 50 mM β Glycerophosphate, 25 μg/ml chimotrypsine, 5 μg/ml aprotinin, 10 μg/ml Leupeptin. Beads were then washed 5 times in 1 ml binding buffer. Bound proteins were eluted with 2×Laemmli SDS-PAGE sample buffer, fractionated by 10% SDS-PAGE and visualized by fluorography using Amplify (Amersham Pharmacia Biotech). As expected, THAP1-C1, -C2, -C3, -and -N3 interacted with GST/THAP1 (FIG. 16B).

Measured: binding result

T3 sequence (P08515 whole entry): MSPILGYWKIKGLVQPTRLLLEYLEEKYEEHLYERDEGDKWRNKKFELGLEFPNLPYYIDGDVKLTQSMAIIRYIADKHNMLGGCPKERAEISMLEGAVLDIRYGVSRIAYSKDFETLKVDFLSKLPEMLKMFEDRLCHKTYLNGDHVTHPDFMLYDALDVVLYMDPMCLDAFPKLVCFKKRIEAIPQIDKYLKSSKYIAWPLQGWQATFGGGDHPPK

B1: human cytokine IFNγ (amino acids 21-166) (ligand)
chain: CYCQDPYVKEAENLKKYFNAGHSDVADNGTLFLGILKNWKEESDRKIMQSQIVSFYFKLFKNFKDDQSIQKSVETIKEDMNVKFFNSNKKKRDDFEKLTNYSVTDLNVQRKAIHELIQVMAELSPAAKTGKRKRSQMLFQGRRASQ
notes: Negative control; The range is stated on the GenBank entry; Tested as a Gal4-BD fusion (pGBKT7-IFNγ) and as in vitro translated 35S-labelled protein from that vector; also called interferon gamma; hIFNγ
no binding: human THAP1 (THanatos …) [1] | [2] | [3]

B2: THAP1-N1 deletion mutant (amino acids 1-90) (other)
chain: MVQSCSAYGCKNRYDKDKPVSFHKFPLTRPSLCKEWEAAVRRKNFKPTKYSSICSEHFTPDCFKRECNNKLLKENAVPTIFLCTEPHDKK
notes: Tested as a Gal4-BD or Gal4-AD fusion, as in vitro translated 35S-labelled protein and as an EGFP fusion
no binding: [4] | human THAP1 (THanatos …) [5] | [6]
